Results published in article PMC7374468, “Characterization of highly active 2-keto-3-deoxy-L-arabinonate and 2-keto-3-deoxy-D-xylonate dehydratases in terms of the biotransformation of hemicellulose sugars to chemicals” (Applied Microbiology and Biotechnology, 2020).

B1: CcD-KdpD1 (Caulobacter vibrioides CB15) (protein)
chain: MVCRRLLAWTARAREAEDFALVRQPTCRPHMLALPSADERAPPTVSALQTLEFWGDDAVGVSEFLPEDWKAATLLGRIDFGEGPTPVLVRGGRVEDVSKIAPTVADLMNAFQPGAVIPRGEDKGPLEALDIRPVWEDPDGAAPVKLLAPVDLQCLKAAGVTFAVSTLERVIEERARGDAGEALKIRTLLAERMGGDLKSVEPGSQGAQRLKDALIADGLWSQYLEVAIGPDAEIFTKGPTLSSMGWGDQVGVRYDSHWNNPEPEVVLLCDGSGLIRGAALGNDVNLRDFEGRSALLLSKAKDNNASCAIGPFFRLFDETFGLDDVRSAEVELKITGRDNFVLDGKSNMSLISRDPAVLAGQAYGKQHQYPDGFALFLGTMFAPIQDRDTPGQGFTHKVGDRVRVSTPKLGVLENEVTTCDKAKPWTFGISALIRNLAGRGLL
notes: C-terminal His6 tag (kept), codon-optimised synthetic gene, E. coli BL21(DE3); 58-residue N-terminal extension
B2: AbL-KdpD (Azospirillum brasilense) (protein)
chain: MTSSSTPRHRGIFPVVPTTFADTGELDLASQKRAVDFMIDAGSDGLCILANFSEQFAITDDERDVLTRTILEHVAGRVPVIVTTSHYSTQVCAARSLRAQQLGAAMVMAMPPYHGATFRVPEAQIFEFYARVSDAIAIPIMVQDAPASGTALSAPFLARMAREIEQVAYFKIETPGAANKLRELIRLGGDAIEGPWDGEEAITLLADLHAGATGAMTGGGFPDGIRPILEAWREGRHDDAYARYQAWLPLINHENRQSGILTAKALMREGGVIASERPRHPMPELHPDTRAELLAIARRLDPLVLRWAH
notes: N-terminal His6 tag (kept), codon-optimised synthetic gene, E. coli BL21(DE3), HisTrap purified, lower purity
B3: CcD-KdpD2 (Caulobacter vibrioides NA1000) (protein)
chain: MGVSEFLPEDWKAATLLGRIDFGEGPTPVLVRGGRVEDVSKIAPTVADLMNAFQPGAVIPRGEDKGPLEALDIRPVWEDPDGAAPVKLLAPVDLQCLKAAGVTFAVSTLERVIEERARGDAGEALKIRTLLAERMGGDLKSVEPGSQGAQRLKDALIADGLWSQYLEVAIGPDAEIFTKGPTLSSMGWGDQVGVRYDSHWNNPEPEVVLLCDGSGLIRGAALGNDVNLRDFEGRSALLLSKAKDNNASCAIGPFFRLFDETFGLDDVRSAEVELKITGRDNFVLDGKSNMSLISRDPAVLAGQAYGKQHQYPDGFALFLGTMFAPIQDRDTPGQGFTHKVGDRVRVSTPKLGVLENEVTTCDKAKPWTFGISALIRNLAGRGLL
notes: C-terminal His6 tag (kept), pET vector, E. coli BL21(DE3), HisTrap purified
B4: HsL-KdpD (Herbaspirillum seropedicae SmR1) (protein)
chain: MSTPLYRGVFPVAPTIFDANGKLDLEGQKRAIDFMIDAGSNGLCILANFSEQFVLSDEERVQVQNTVLEHVAGRVPVIVTTTHYGSQICAERSRAAQDAGAAMVMVMPPYHGATFRVPEKQIYEFYKHVSDAIDIPIMIQDAPVAGTPLSAPFLARMAKEIEQVSYFKIETAGAASKLRDLIELGGDAVVGPWDGEEAITLIPDLDAGATGAMTGGGYPDGIRKIVDAYFAGDIEKAAELYMQWLPLINYENRQCGLSACKALMLEGGVIKSDMLRHPQPPLHPKVREGLLRVARRLDPLVLSWGR
notes: N-terminal His6 tag (kept), pET vector, E. coli BL21(DE3), HisTrap purified
B5: CnD-KdpD (Cupriavidus necator H16) (protein)
chain: MALPLTLSATQTLPADGLAGTLVGRAWIPASDGAPAGPAVVVLRPAGVFDISDVAPTMSTLLEQGDPVTVVHNTPGRWIGKLDDLLANTADPRGSDSVARLLAPCDLQVIKAAGVTFAGSLVERVIEEQTKGDPQGAAEVRNRIQALVGERLSRIRPGSREAGELKALLIEHGMWSQYLEVGIGPDAEIFTKAPLLSALGTGTEIGLHPGSAWNNPEPEIVLAINSRGDVLGATLGNDVNLRDFEGRSALLLGKAKDNNGSCAIGPFLRLFDQSLSLDDVRRATVDLRVDGLDGFVLSGTSSMDQITRDPLELAEQVMGATHQYPDGAMLFLGTLFAPVEDRDTAGGGFTHKDGDLVTISSRQLGSLVNRVGRSDRIAPWTFGVRALMANLAARGHTTF
notes: C-terminal His6 tag (kept), pET vector, E. coli BL21(DE3), HisTrap purified; strain given inconsistently (H16 gDNA vs N-1)
B6: CnL-KdpD (Nhis) (Cupriavidus necator H16) (protein)
chain: MTRTPSPTVYRGVFPVAPTVFDAQGGLDLDGQRRCIDFMIDAGSHGICILANFSEQFVLSDDERNVLMKTVLEHVDGRVPVIVTTTHFSSRLCAERSRAAQDAGAAMVMVMPPYHGATIRVPERSIYEFFATVSDAIDIPIMIQDAPVSGTTLSAPFLARMAREIGNVSYFKIEVPQAAAKLRELIELGGDAIVGPWDGEEAITLMADLEAGATGAMTGAGFPDGIRQILDAWQAGDAELAAQRYQQWLPLINYENRQGWLATSKVLMQAGGVIASDAVRHPLQPMHPATREGLLKIARRLDPLVLRWAR
notes: N-terminal His6 tag (kept), pET vector, E. coli BL21(DE3), HisTrap purified; strain given inconsistently (H16 gDNA vs N-1)
B7: CnL-KdpD (Chis) (Cupriavidus necator H16) (protein)
chain: B6 chain
notes: as for B5
B8: HsD-KdpD (Herbaspirillum seropedicae SmR1) (protein)
chain: MAHTFSLQAHLPEDHAQATLIGRIWQPGVGPVLVRIDADGAYDLTLIAATSSELLELDNPAAAVRSATNMTRIATLQELLDNADAAGRDTSRPWLLAPIDLQAVKASGVTFVASMLERVIEEQARGDAGKAESVRKAITAVIGDNLSSVVPGSPEAARLKEVLLDQGVWSQYLEVGIGPDAEIFTKAQPMSSVGLGDEVGIHPKSAWNNPEPEIVLAINSRGKVVGATLGNDVNLRDFEGRSALLLGKAKDNNASCAVGPFIRLFDANFSIDDVRRAELTMRVDGTEGFTLKGSSSMSMISRDPLQLVEHAIGPNHQYPDGLVLFLGTMFAPTQDRFGPGQGFTHQVADIVTISTPKLGALVNTVNFSDQTAPWTFGLTALFKNLADRKLI
notes: as for B3
B9: PpD-KdpD (Pseudomonas putida KT2440) (protein)
chain: MTDRTNANQPLPLSHDASVFDRGSWVGRVWLPEQGPAVVLVKAGAVYDISTHVATVSALLEVDDPVAYLRALPLAEPLIALPALLGNSDPTRRTPHQPWLLAPIDLQAVKAAGVTFATSLLERVVEEQAKGDPAKADAIRDTLASRIGADLSQIVPGSAQAEALRKVLVEQGLWSQYLEVGIGPDAEVFTKAQPLSAVGHGADIGIHPKSSWNNPEPEVVLAVSSNGSIKGAMLGNDVNLRDFEGRSALLLSKAKDNNASTALGPLLRLFDESFGLDDVRAAEVDLRVEGEDGFILSGRSSMRQISRDPQDLVQQTLNENHQYPDGLVLFLGTLFAPKQDRDQPGNGFTHKPGDVVSISNPQLGTLCNRVTTSDLAPQWDFGLRALIDNLGRRGLLEVAATARPL
notes: as for B3
B10: PxD-KdpD (Paraburkholderia xenovorans LB400) (protein)
chain: MSATSPSSFLPDDLGQALLVGRVWRKTDQHEGPSVVVVRGGEVFDITATVPTTADLFDREDAAPLARTAPGVSLGAVAQLIASNLPGAAAPALRLLAPCDVQAIKACGVTFAVSLIERVIEEQAAGDPAKAKEVRDTIASMIGTDLSKIEPGSDAAMKLKAELERRGAWSQYMEVGIGPDAEVFSKSQPMSAVGFGADVGLLAASTWNNPEPEIVLAVNSRGEIVGATLGNDVNLRDIEGRSALLLGKCKDNNGSCAIGPFVRLFDESFSLDSVRTASVALRVEGADDGFVLEGVSHMSEISRDPANLVAQTWGRHHQYPDGFMLFLGTMFSPIKDRDAPGAGFTHHLGDLVTISTPQLGALTNTVRLSTEIEPWTFGVRALYRNLAARGLLASA
notes: C-terminal His6 tag (kept), codon-optimised synthetic gene, E. coli BL21(DE3), HisTrap purified

Columns and labels:
[1] = substrate: O=C(O)C(=O)C[C@@H](O)CO; assay: purified protein, by the assay type; parameters: coupled assay with PpKGSADH, NADH formation at 340 nm, Michaelis-Menten fit, 25 °C, pH 7.5; conditions: pH 7.5; 25.0 °C
Protocol: (§1) To determine dehydratase activity, a coupled-assay with PpKGSADH as auxiliary enzyme was used to link the oxidation of KGSA to α-KG using NAD^+, as was described in a previous study (Beer et al. [2017]). The measurement was performed in a 96-well F-bottom plate (Greiner Bio-One, Germany). 20 μL of a diluted enzyme was added to a 96-well plate. A total of 180 μL of reaction solution containing different concentrations of either D-KDP or L-KDP with 0.5 U/mL PpKGSADH, 2 mM NAD^+, 5 mM MgCl2, 50 mM HEPES pH 7.5 (end concentration) were added subsequently. The measurement was performed with a Multiskan spectrophotometer (Thermo Scientific, Germany) by measuring the development of NADH at 340 nm at 25 °C. Enzyme activity (kcat) was defined as the number of NADH molecules formed per molecule of enzyme per second. Measurements were performed in triplicate.

[2] = substrate: O=C(O)C(=O)C[C@H](O)CO; assay: purified protein; assay type: biochemical, Caulobacter vibrioides; conditions: 2 mM NAD+ for coupling enzyme, 5 mM MgCl2, 50 mM HEPES pH 7.5, 25 °C
[3] = substrate: O=C(O)C(=O)C[C@H](O)CO; assay: purified protein, by the assay type; parameters: coupled assay with PpKGSADH, NADH formation at 340 nm, Michaelis-Menten fit, 25 °C, pH 7.5; conditions: pH 7.5; 25.0 °C
Protocol: as §1

[4] = substrate: O=C(O)C(=O)C[C@@H](O)CO; assay: purified protein; assay type: biochemical, Azospirillum brasilense; conditions: 2 mM NAD+ for coupling enzyme, 5 mM MgCl2, 50 mM HEPES pH 7.5, 25 °C
[5] = substrate: O=C(O)C(=O)C[C@@H](O)CO; assay: purified protein; assay type: biochemical, Herbaspirillum seropedicae; conditions: 2 mM NAD+ for coupling enzyme, 5 mM MgCl2, 50 mM HEPES pH 7.5, 25 °C
[6] = substrate: O=C(O)C(=O)C[C@H](O)CO; assay: purified protein; assay type: biochemical, Cupriavidus necator; conditions: 2 mM NAD+ for coupling enzyme, 5 mM MgCl2, 50 mM HEPES pH 7.5, 25 °C
[7] = substrate: O=C(O)C(=O)C[C@@H](O)CO; assay: purified protein; assay type: biochemical, Cupriavidus necator; conditions: 2 mM NAD+ for coupling enzyme, 5 mM MgCl2, 50 mM HEPES pH 7.5, 25 °C
[8] = substrate: O=C(O)C(=O)C[C@H](O)CO; assay: purified protein; assay type: biochemical, Herbaspirillum seropedicae; conditions: 2 mM NAD+ for coupling enzyme, 5 mM MgCl2, 50 mM HEPES pH 7.5, 25 °C
[9] = substrate: O=C(O)C(=O)C[C@H](O)CO; assay: purified protein; assay type: biochemical, Pseudomonas putida; conditions: 2 mM NAD+ for coupling enzyme, 5 mM MgCl2, 50 mM HEPES pH 7.5, 25 °C
[10] = substrate: O=C(O)C(=O)C[C@H](O)CO; assay: purified protein; assay type: biochemical, Paraburkholderia xenovorans; conditions: 2 mM NAD+ for coupling enzyme, 5 mM MgCl2, 50 mM HEPES pH 7.5, 25 °C

| Protein | Km [1] [µM] | kcat [1] [s⁻¹] | kcat/Km [1] [M⁻¹ s⁻¹] | Km [3] [µM] | kcat [3] [s⁻¹] | kcat/Km [3] [M⁻¹ s⁻¹] | further results |
| --- | --- | --- | --- | --- | --- | --- | --- |
| B1 | 2810 ± 120 | 7.99 ± 0.08 | 2840 ± 210 |  |  |  | Km [2]: 250 ± 10 µM; kcat [2]: 45.6 ± 0.3 s⁻¹; kcat/Km [2]: 185700 ± 200 M⁻¹ s⁻¹ |
| B2 |  |  |  | 6810 ± 350 | 6.65 ± 0.1 | 980 ± 230 | Km [4]: 190 ± 20 µM; kcat [4]: 13.6 ± 0.3 s⁻¹; kcat/Km [4]: 71300 ± 300 M⁻¹ s⁻¹ |
| B3 | 3960 ± 130 | 9.67 ± 0.08 | 2440 ± 180 |  |  |  | Km [2]: 290 ± 10 µM; kcat [2]: 55.8 ± 0.4 s⁻¹; kcat/Km [2]: 190600 ± 200 M⁻¹ s⁻¹ |
| B4 |  |  |  | 4410 ± 90 | 11.38 ± 0.06 | 2580 ± 140 | Km [5]: 180 ± 0 µM; kcat [5]: 29.6 ± 0.2 s⁻¹; kcat/Km [5]: 163900 ± 200 M⁻¹ s⁻¹ |
| B5 | 2490 ± 200 | 4.24 ± 0.07 | 1700 ± 280 |  |  |  | Km [6]: 230 ± 20 µM; kcat [6]: 13.8 ± 0.2 s⁻¹; kcat/Km [6]: 58900 ± 400 M⁻¹ s⁻¹ |
| B6 |  |  |  | 4080 ± 210 | 12 ± 0.16 | 2950 ± 230 | Km [7]: 170 ± 0 µM; kcat [7]: 23.4 ± 0.1 s⁻¹; kcat/Km [7]: 137200 ± 200 M⁻¹ s⁻¹ |
| B7 |  |  |  | 6400 ± 170 | 11.01 ± 0.08 | 1720 ± 160 | Km [7]: 160 ± 10 µM; kcat [7]: 22.5 ± 0.2 s⁻¹; kcat/Km [7]: 137500 ± 200 M⁻¹ s⁻¹ |
| B8 | 3180 ± 180 | 16.9 ± 0.21 | 5320 ± 230 |  |  |  | Km [8]: 170 ± 10 µM; kcat [8]: 58.2 ± 0.4 s⁻¹; kcat/Km [8]: 347900 ± 200 M⁻¹ s⁻¹ |
| B9 | 6120 ± 210 | 19.64 ± 0.17 | 3210 ± 190 |  |  |  | Km [9]: 350 ± 10 µM; kcat [9]: 75.9 ± 0.6 s⁻¹; kcat/Km [9]: 219900 ± 200 M⁻¹ s⁻¹ |
| B10 | 5080 ± 170 | 18.73 ± 0.15 | 3690 ± 180 |  |  |  | Km [10]: 280 ± 10 µM; kcat [10]: 63.6 ± 0.4 s⁻¹; kcat/Km [10]: 229800 ± 200 M⁻¹ s⁻¹ |
